The data set deals with LARP1 DM15 F844Y/R847E (FYRE) (Homo sapiens, UniProt Q6PKG0-3 796-946, F844Y;R847E). Description: EMSA.

The record followed here is article PMC7269035.

Consider GCUCUUUUCCGUGGCGCCUC (ssRNA, 5' m7Gppp cap (vaccinia capping enzyme)) [m7Gppp-non-TOP (+1G) RPS6 20-mer], for which the binding result is “binds”.
